Measurements: patent US11485991B2, “Multifunctional recombinant nucleotide dependent glycosyltransferase protein and its method of glycosylation thereof” (Council of Scientific & Industrial Research, priority 2016, dated 2022)
Where a chain is given by its changes, count along the chain named. Names may count otherwise. Ends that are not written are not given here.

B1: GT-CTH D131A (protein)
chain: MGYSENFIANDWFNVEVFNKNKYTLTNQENKDVTELWLQILKGLKFPNELKETVSYSKNLKELSLKTHAEVSVCIIAKNEQDSIRKCINSIYEFSDEIIFIDTGSIDSTKKIVKEIASEKVKIFDYTWQDAFSDARNYSIQKASKEWILIIDADEYVSSDELIKLRLLIDMLDRFKFKDSLRVSCAIYQLDNVITHGQSRLFRNNNKIKYYGLIHEELRNNKGLDPIFNVESEITFFHDGYKEILRKEKCERNIRLLAKMLEKEPDNVRWAYLYCRDSFSINSNIDFEKILLPFLIKNMDESISCENILLTNYTHLILFLITKKYIIDGKSSLASKCIEVLEKMLPNSSDVTFYKFLNKQHSLYEQQFEFLKEVIQFRKNNEYDQYSQIGCNLLHYDLLISGLLFDVKSYDYSYQYFLKLDLANYFSELEIPDEYKMLINKYRENESLEHHHHHH
B2: GT-CTH D152A (protein)
chain: B1 chain with A131D, D152A
B3: GT-CTH R136A (protein)
chain: B1 chain with A131D, R136A
B4: GT-CTH D102A (protein)
chain: B1 chain with D102A, A131D
B5: GT-CTH D130A (protein)
chain: B1 chain with D130A, A131D
B6: GT-CTH D130A, D131A (protein)
chain: B1 chain with D130A
B7: GT-CTH A153R (protein)
chain: B1 chain with A131D, A153R
B8: GT-CTH F132A (protein)
chain: B1 chain with A131D, F132A
B9: GT-CTH D131A, F132D (protein)
chain: B1 chain with F132D
B10: GT-CTH E97A (protein)
chain: B1 chain with E97A, A131D
B11: GT-CTH C87A (protein)
chain: B1 chain with C87A, A131D
B12: GT-CTH W147A (protein)
chain: B1 chain with A131D, W147A
B13: GT-CTH Y241A (protein)
chain: B1 chain with A131D, Y241A
B14: GT-CTH D154A (protein)
chain: B1 chain with A131D, D154A

Assays:
[1] = system: Listeria monocytogenes EGD-e; assay: Agar well diffusion assay of antimicrobial activity of enterocin 96 glycoforms (zone of growth inhibition); assay type: cell-based; details: 50 μM glycoform in agar wells, BHI agar seeded with Listeria monocytogenes EGD-e, 37° C. for 12 h
Experimental: The di-glycosylated, mono-glycosylated and un-glycosylated glycoforms corresponding to enterocin 96 (known bacteriocin) peptide sequence are prepared under controlled GT assay conditions and purified using RP-HPLC based method. The lyophilized product glycoforms including glyco-diversified forms are resuspended in 50 mM Tris-Cl, pH 7.5. The culture of Listeria monocytogenes EGD-e is grown in BHI media at 37° C. for 7-8 h. Agar plates are prepared by mixing 25 μL of saturated culture (A600≈1.5) and 100 mL of molten BHI agar (cooled to 40-45° C.) and pouring the mixture into sterile petri plates. The seeded agar plates are allowed to solidify for 30-45 min and agar wells are prepared using a sterile cork borer. 50 μM of all glycoforms including glyco-diversified forms are poured in to the wells and plates are incubated at 37° C. for 12 h. The antimicrobial activity is determined by the presence and absence of zone of growth inhibition.

[2] = system: synthetic acceptor substrates; assay: In vitro glycosyltransferase (GT) assay of GT-CTH mutants with MS detection of glycosylated product; assay type: biochemical; details: purified mutant of GT-CTH, acceptor substrate and UDP-glucose, MS analysis
Experimental: Purified recombinant nucleotide dependent glycosyltransferase (0.2 μM) is incubated with synthetic acceptor substrates (5 μM) and 100 μM UDP-glucose in a reaction buffer containing 20 mM HEPES, pH 7.5, 50 mM NaCl, 1 mM TCEP and 1 mM MgCl2. The reaction is incubated at 25° C. for 12 h. Each assay reaction was accompanied by control reaction (without enzyme). The reactions are quenched with 5% TFA to pH 2, desalted using ZipTip C18, and vacuum dried and analyzed using mass spectrometry.
Mass spectrometry has been used to detect glycosylation in product of glycosylation assay reactions using Matrix Assisted Laser Desorption Ionization Time of flight mass spectrometry (MALDI-TOF MS) and Liquid chromatography electrospray ionization mass spectrometry (LC/ESI-MS) techniques. MALDI-TOF MS has carried out at AB Sciex 5800 MALDI TOF/TOF and LC/ESI-MS has carried out at 6550 iFunnel QTOF LC/MS (Agilent Technologies) using Zorbax Eclipse plus C8 column (3.0×150 mm, 5μ) of Agilent technologies. For MALDI-TOF analysis and LC-ESI/MS analysis, vacuum dried samples are reconstituted in water and 0.1% formic acid respectively.
Various mutations are introduced in recombinant nucleotide dependent glycosyltransferase (GT-CTH) using side directed mutagenesis (Quick change lightning Mutagenesis kit, Agilent) using GTpET28a plasmid as template. The sequence of mutants is verified through DNA sequencing. The mutated recombinant plasmids are transformed into E. coli Lemo21(DE3) and E. coli BL21(DE3) cells for expression. The over expression, purification and functional analysis of mutants of recombinant nucleotide dependent glycosyltransferase proteins are performed using the above mentioned methods. The list of mutants of recombinant nucleotide dependent glycosyltransferase, created in accordance with present invention identifies D102, R136, W147, D152, A153, D154 residues critical for activity of recombinant nucleotide dependent glycosyltransferase (GT-CTH). Replacement of these residues to alanine results into abolishment of the glycosyltransferase activity.

Molecule	antimicrobial activity (presence and absence of zone of growth inhibition) [1]	In vitro glycosyltransferase activity status [2]
di-glucosylated product: Enterocin 96 peptide (SEQ ID NO: 4) carrying a glucose-glucose disaccharide glycan, made with the recombinant glycosyltransferase (MSKRDCNLMKACCAGQAVTYAIHSLLNRLGGDSSDPAGCNDIVRKYCK; cysteine pairing not given here; also: glucose-glucose disaccharide glycan, site not given here)	more antimicrobial activity than mono-glucosylated product	
B1		Active
B2		Inactive
B3		Inactive
B4		Inactive
B5		Active
B6		Inactive
B7		Inactive
B8		Active
B9		Inactive
B10		Active
B11		Active
B12		Inactive
B13		Active
B14		Inactive
